Entries after “also recorded” stand apart in the source; their conditions may differ.
T1: BMP2 (Homo sapiens, UniProt P12643)
T1 sequence (P12643 283-396): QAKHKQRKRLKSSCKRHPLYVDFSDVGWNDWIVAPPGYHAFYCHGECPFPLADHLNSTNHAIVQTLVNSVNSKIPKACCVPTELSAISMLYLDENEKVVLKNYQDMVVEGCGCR

T2: BMP6 (Homo sapiens, UniProt P22004)
T2 sequence (P22004 375-513): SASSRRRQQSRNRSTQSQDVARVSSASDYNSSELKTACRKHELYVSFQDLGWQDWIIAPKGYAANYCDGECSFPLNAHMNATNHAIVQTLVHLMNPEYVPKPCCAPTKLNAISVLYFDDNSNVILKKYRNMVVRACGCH


How the values were obtained:
BMP2 [1] = target: T1, BMP2; experiment: Surface plasmon resonance (SPR), BMPs injected over VHH-coated chip; set-up: ka (BMP2): unit not given here; conditions: molecule coupled to chip, —: No binding detected
Procedure: In a first set of experiments, controls and VHHs (either as monomers or dimers) were coupled to SPR chips and the measurement of BMP affinities was obtained by injecting the different BMPs to the plate.
Serial dilutions (2.0-10 μg/ml) of purified VHHs were spotted on an amine-specific SensEye gold-film gel-type SPRchip (Ssens), using a Continuous Flow Microspotter (Wasatch Microfluidics, Salt Lake City, Utah, United States) as described (Lokate et al., 2007). BMP binding was analyzed on an IBIS MX96 (IBIS Technologies, Enschede, The Netherlands) instrument by performing injections with dilution series (0.05-2.0 μg/ml) of recombinant BMPs on the VHH-coated chip. In each injection, BMPs were injected and incubated for 8 min, followed by 15 min thorough washing with binding buffer (PBS+0.05% Tween20+0.05% sodium azide) to measure dissociation. Epitope binning was done by injecting VHH dilutions (2.0 μg/ml) over the chip, immediately after the dissociation step. Injections with blank binding buffer were used as reference. After each concatenated injection, the chip was regenerated with 10 mM glycine-HCl, pH 2.0. Experimental data were processed with SPRintX software (IBIS Technologies) and kinetic parameters were determined using Scrubber2 software (BioLogic Software, Campbell, ACT, Australia). Binding constants were obtained by global fitting to a one-site binding model.

human BMP4 = experiment: BMP activity luciferase reporter assay (BRE-luciferase, ID1 promoter) in C2C12 cells; format: cell-based, mouse
Procedure: (§1) One of the most studied BMP target genes is the Inhibitor of Differentiation 1 (ID1). This is an immediate early gene that is activated by binding of the phosphorylated SMADs to its promoter region (López-Rovira et al., 2002). Thus, we employed the BMP-responsive C2C12 cells, which are stably transfected with the BRE-luciferase vector containing the BMP-Responsive-Element (the mouse ID1 promoter) cloned into the pGL3 luciferase vector (Zilberberg 2007). […] C2C12 cells were treated with the different BMPs with or without our VHHs or human Noggin at a concentration of 5 μg/ml. Luciferase activity was measured after 16 hours incubation. Most of the transcriptional data is in concordance with the results obtained with the phosphorylation of SMAD1/5/8.
(§2) C2C12 cells were plated in 96-well plates at 5×10^3 cells/well and cells were allowed to attach overnight. 100 μl of DMEM with 0.1% BSA were added in each well. VHH antibodies and human Fc-Noggin at the indicated concentrations were added at the same time. Wells with unstimulated cells were added as controls. Cells were treated in triplicate with the BMPs at the indicated concentrations for 16 hours. Luciferase activity was measured by adding 100 μl of luciferase substrate solution from the Bright-Glo™ Luciferase Assay System (Promega Benelux, Leiden, The Netherlands). After 3 minutes of incubation, luciferase activity was measured with Synergy HT Multi-Mode Microplate Reader (Biotek, Winooski, Vt., United States). Luciferase values were normalized to background activity (activity of wells with no cells) and represented as ratio to the activity of BMP-stimulated cells.
(§3) To evaluate the extent of this increase in potency, the IC50 of the different VHHs were determined in a dose-dependent inhibition assay in C2C12 cells (FIG. 25). C2C12 cells were plated in 96-well plates at 5×10^3 cells/well and cells were allowed to attach overnight 100 μl of DMEM with 0.1% BSA were added in each well. VHH antibodies were added at the indicated concentrations at the same time as 5 ng/ml BMP4 (FIG. 25A-B, D) or 50 ng/ml of BMP2 (FIG. 25C,D). Luciferase activity was measured after 16 hours. Values are represented as ratio to the activity of BMP-stimulated cells. […] However, its effects were more striking for BMP2 rather than BMP4 inhibition. […] The IC50 values for BMP4 inhibition observed in our VHHs are considerably lower than those observed for anti-BMP4 commercially available from R&D (Katagiri et al 1994) and those described in WO_2008/030611.
(§4) C2C12 cells were cultured in 96-well plates at 5×10^3 cells/well. After overnight attachment cells were stimulated with 10 ng/ml hBMP4 (Cat No. 314-BP-020; R&D Systems), 50 ng/ml hBMP2 (Cat No. 355-BM-010; R&D Systems), 200 ng/ml hBMP5 (Cat No. 615-BMC-020; R&D Systems), 50 ng/ml hBMP6 (Cat No. 506-BP-020; R&D Systems), 200 ng/ml hBMP7 (Cat No. 354-BP-010; R&D Systems), 25 ng/ml hBMP9 (Cat No. 3209-BP-010; R&D Systems), 25 ng/ml hBMP10 (Cat No. 2926-BP-025; R&D Systems), 50 ng/ml hBMP12 (Cat No. 779-G7-010; R&D Systems) and with or without VHH antibodies: C4C4 and C8C8 at 500 ng/ml; natural antagonist: mNoggin (Cat No. 1967-NG-025; R&D Systems), hNoggin (Cat No. 6057-NG; R&D Systems) and mGremlin (cat#956-GR-050; R&D Systems) at 500 ng/ml; chemical antagonist: 0.5 μM LDN-193189 (Cat No. 11802; Cayman Chemical) and 0.2 μM DMH1 (Cat No. 57146; Selleckchem).
(§5) VHH efficacy was evaluated by stimulating cells with 10 ng/ml of hBMP4 and 50 ng/ml of hBMP2, with and without increase concentrations (from 0.1-10 μg/ml) of VHH and anti-BMP4 antibodies: clone 66119, clone 3H2, clone M912262, clone PA354-16.1.1, Clone EPR6211, and anti-BMP4 (ab39973). […] Unstimulated cells were used as controls and wells with no cells used to normalize the background activity. […]

BMP2 [2] = target: T1, BMP2; experiment: as above; format: cell-based, mouse
Procedure: as §1, §2, §3, §4, §5

BMP6 = target: T2, BMP6; experiment: as above; format: cell-based, mouse
Procedure: as §1, §2
C2C12 cells were cultured in 96-well plates at 5×10^3 cells/well. […]

Row | Molecule | ka (BMP2) (BMP2 [1]) | kd (BMP2) (BMP2 [1]) | inhibition of BMP4-mediated transcriptional activation by dimers (human BMP4; BMP4 5 ng/ml, 16 hours, increasing concentrations) | inhibition of BMP2-mediated transcriptional activation by dimers (BMP2 [2]; BMP2 50 ng/ml, 16 hours, increasing concentrations up to 5 μg/ml) | inhibition of BMP6-mediated transcriptional activation by dimers (BMP6; BMP6 50 ng/ml, 16 hours, increasing concentrations) | inhibition of BMP4-derived signals, comparison of inhibitors (human BMP4; 10 ng/ml hBMP4, 16 h, VHH, Noggin, Gremlin 500 ng/ml, LDN 0.5 μM, DMH1 0.2 μM) | IC50 (human BMP4; 10 ng/ml hBMP4, 16 hours, read-out: IC50, neutralization of BMP4) | inhibition of BMP-2 signals, comparison of inhibitors (BMP2 [2]; 50 ng/ml hBMP2, 16 h, VHH, Noggin, Gremlin 500 ng/ml, LDN 0.5 μM, DMH1 0.2 μM) | IC50 (BMP2 [2]; 50 ng/ml hBMP2, 16 hours, read-out: IC50, neutralization of BMP2) | inhibition of BMP-6 signals, comparison of inhibitors (BMP6; 50 ng/ml hBMP6, 16 h, 500 ng/ml)
1 | C8E7: E7 linked to C8, hetero-dimer VHH bihead (protein) EVQLVESGGGLVQAGGSLRLSCAASGRTFRINDMGWYRQAPGKSRDMVARITSGGNTNYADSVKGRFTISRDNAKNTVYLQMNSLKPEDTAVYYCNADGLRFDSTRYRPFDSWGQGTQVTVSSGGGGSGGGGSEVQLVESGGGLVQAGGSLRLSCAASGSIRGFVAMAWYRQAPGKQREWVATVTNGGTLYGDSVKGRFTGSRDNAKNTVYLQMNSLKPEDTAVYYCALRQIGASGYDYWGQGTQVTVSS | 19.4 | 10.7 10^−5 sec^−1 | inhibit; also recorded: similar | inhibit; also recorded: similar | unable to impair | – | – | – | – | –
2 | hNoggin (protein) QHYLHIRPAPSDNLPLVDLIEHPDPIFDPKEKDLNETLLRSLLGGHYDPGFMATSPPEDRPGGGGGAAGGAEDLAELDQLLRQRPSGAMPSEIKGLEFSEGLAQGKKQRLSKKLRRKLQMWLWSQTFCPVLYAWNDLGSRFWPRYVKVGSCFSKRSCSVPEGMVCKPSKSVHLTVLRWRCQRRGGQRCGWIPIQYPIISECKCSC | – | 16.2 10^−5 sec^−1 | – | – | – | greatly inhibit | ~0.54 nM | greatly inhibit | ~1.6 nM | inhibited
